Laboratory results as given in patent publication US20230151084A1, “COMPOSITIONS AND METHODS OF […] CELL RESPONSE” (CASE WESTERN RESERVE UNIVERSITY, priority 2015, published 2023).

Tested on: B cells
Assay: BAFF and APRIL B cell growth (viability signaling in B cells)
Type: cell-based
Conditions: added C5a, compared with disabling B cell C3aR/C5aR signaling, which suppressed growth (FIG. 3)
Text: FIGS. 3(A-B) illustrate graphs showing BAFF and APRIL viability signaling in B cells depends on C3aR/C5aR signaling.
(FIGS. 1(A-C) and FIGS. 2(A-B)). […] (FIGS. 3(A-C)). […] (FIGS. 4(A-B)). Following ova immunization, recipients of adoptively transferred C3ar1^−/−C5ar1^−/− B cells produced reduced IgM Ab and no other isotypes.

B1: C5a: complement anaphylatoxin C5a, ligand of the C5a receptor (C5aR), added to B cells (protein, UniProt P01031 678-751, looked up)
C5a anaphylatoxin: TLQKKIEEIAAKYKHSVVKKCCYDGACVNNDETCEQRAARISLGPRCIKAFTECCVVASQLRANISHKDMQLGR
modifications: C5a anaphylatoxin
notes: complement anaphylatoxin C5a, ligand of the C5a receptor (C5aR), added to B cells
- BAFF and APRIL B cell growth: opposite effect
